Laboratory results as given in the Immune Epitope Database (IEDB).
pIC50, pKd: −log10 of the molar value.

How the values were obtained:
HLA-A*31:01 = experiment: IEDB peptide-MHC binding, purified MHC/competitive/fluorescence; filed as Kd, often an IC50 or EC50 that approximates it; ≥ and ≤ were set here for values at or beyond the usual limits of such assays
HLA-B*39:01 = experiment: as above
HLA-A*26:01 [1] = experiment: as above
HLA-A*02:01 [2] = experiment: as above
HLA-A*68:02 = experiment: as above
HLA-A*02:16 = experiment: as above
HLA-B*15:17 = experiment: as above
HLA-B*27:03 = experiment: as above
HLA-B*57:01 = experiment: as above
HLA-A*02:19 = experiment: as above
HLA-A*24:03 = experiment: as above
HLA-B*51:01 = experiment: as above
HLA-B*46:01 = experiment: as above
HLA-B*18:01 = experiment: as above
HLA-A*02:03 = experiment: as above
HLA-B*15:01 [3] = experiment: as above
HLA-A*69:01 [4] = experiment: as above
HLA-A*02:12 = experiment: as above
HLA-B*08:02 = experiment: IEDB peptide-MHC binding, purified MHC/direct/fluorescence; filed as Kd, often an IC50 or EC50 that approximates it; ≥ and ≤ were set here for values at or beyond the usual limits of such assays
HLA-B*08:01 = experiment: as above
HLA-B*15:42 = experiment: IEDB peptide-MHC binding, purified MHC/competitive/fluorescence; filed as Kd, often an IC50 or EC50 that approximates it; ≥ and ≤ were set here for values at or beyond the usual limits of such assays; details: source organism: Yersinia pestis Nepal516
HLA-B*40:01 [5] = experiment: as above; details: source organism: Yersinia pestis Nepal516
HLA-B*45:06 = experiment: as above; details: source organism: Yersinia pestis Nepal516
HLA-B*83:01 = experiment: as above; details: source organism: Yersinia pestis Nepal516
HLA-C*04:01 = experiment: as above; details: source organism: Yersinia pestis Nepal516
HLA-A*24:02 [6] = experiment: IEDB peptide-MHC binding, purified MHC/competitive/fluorescence; ≥ and ≤ were set here for values at or beyond the usual limits of such assays; details: source organism: Zaire ebolavirus
HLA-A*01:01 [7] = experiment: as above; details: source organism: Zaire ebolavirus
HLA-A*02:01 [8] = experiment: as above; details: source organism: Zaire ebolavirus
HLA-B*15:01 [9] = experiment: as above; details: source organism: Zaire ebolavirus
HLA-A*29:02 = experiment: IEDB peptide-MHC binding, purified MHC/competitive/fluorescence; filed as Kd, often an IC50 or EC50 that approximates it; ≥ and ≤ were set here for values at or beyond the usual limits of such assays; details: source organism: Brucella abortus S19
HLA-A*02:11 = experiment: as above
HLA-A*03:01 [10] = experiment: as above; details: source organism: Brucella abortus S19
HLA-A*24:02 [11] = experiment: IEDB peptide-MHC binding, purified MHC/direct/fluorescence; filed as Kd, often an IC50 or EC50 that approximates it; ≥ and ≤ were set here for values at or beyond the usual limits of such assays; details: source organism: Influenza A virus (A/Duck/Shantou/2134/00(H9N2))
HLA-B*40:01 [12] = experiment: as above; details: source organism: Influenza A virus (A/Duck/Shantou/2134/00(H9N2))
HLA-A*26:01 [13] = experiment: as above; details: source organism: Influenza A virus (A/Taiwan/2/2006(H1N1))
HLA-A*02:01 [14] = experiment: as above; details: source organism: Influenza A virus (A/Duck/Shantou/2134/00(H9N2))
HLA-A*01:01 [15] = experiment: as above; details: source organism: Influenza A virus (A/Duck/Shantou/2134/00(H9N2))
HLA-A*03:01 [16] = experiment: as above; details: source organism: Influenza A virus (A/Duck/Shantou/2134/00(H9N2))
HLA-B*44:02 = experiment: as above; details: source organism: Influenza A virus (A/Duck/Shantou/2134/00(H9N2))
HLA-A*11:01 = experiment: as above; details: source organism: Influenza A virus (A/Duck/Shantou/2134/00(H9N2))
HLA-B*15:01 [17] = experiment: as above; details: source organism: Influenza A virus (A/Puerto Rico/8/34/Mount Sinai(H1N1))
HLA-A*69:01 [18] = experiment: as above; details: source organism: Influenza A virus (A/Duck/Shantou/2134/00(H9N2))
HLA-B*07:02 = experiment: as above; details: source organism: Influenza A virus (A/Duck/Shantou/2134/00(H9N2))
HLA-B*27:05 = experiment: as above; details: source organism: Influenza A virus (A/Duck/Shantou/2134/00(H9N2))
HLA-B*58:01 = experiment: as above; details: source organism: Influenza A virus (A/Duck/Shantou/2134/00(H9N2))
[19] = source organism: Influenza A virus (A/Gf/HK/SSP607/2003(H9N2))
[20] = source organism: Giardia lamblia ATCC 50803
[21] = source organism: Brucella abortus S19
[22] = source organism: Vibrio parahaemolyticus AQ3810

With AMITYITRK the pKd (HLA-A*31:01; [19]) was 6.80, the pKd (HLA-B*39:01; [19]) was at most 4.70 and the pKd (HLA-A*26:01 [1]; [19]) was at most 4.70. For the same sequence, the pKd (HLA-A*02:01 [2]; [19]) was at most 4.70, the pKd (HLA-A*68:02; [19]) was at most 4.70 and the pKd (HLA-A*02:16; [19]) was at most 4.70. For the same sequence, the pKd (HLA-B*15:17; [19]) was at most 4.70, the pKd (HLA-B*27:03; [19]) was at most 4.70 and the pKd (HLA-B*57:01; [19]) was at most 4.70. For the same sequence, the pKd (HLA-A*02:19; [19]) was at most 4.70, the pKd (HLA-A*24:03; [19]) was at most 4.70 and the pKd (HLA-B*51:01; [19]) was at most 4.70. The pKd (HLA-B*46:01; [19]) was at most 4.70, the pKd (HLA-B*18:01; [19]) was at most 4.70 and the pKd (HLA-A*02:03; [19]) was at most 4.70. It also gave a pKd (HLA-B*15:01 [3]; [19]) of at most 4.70, a pKd (HLA-A*69:01 [4]; [19]) of at most 4.70 and a pKd (HLA-A*02:12; [19]) of at most 4.70.
Work on YSKIRGAAL yielded a pKd (HLA-B*08:02; [20]) of 6.35 and a pKd (HLA-B*08:01; [20]) of 7.57.
Work on KCRLRMDKL yielded a pKd (HLA-B*08:02; source organism: Dengue virus 2 Thailand/16681/84) of at most 4.70.
With VEMQLAVVI the pKd (HLA-B*15:42) was at most 5.30, the pKd (HLA-B*40:01 [5]) was 8.10 and the pKd (HLA-B*45:06) was at most 5.30. The pKd (HLA-B*83:01) was at most 5.30, the pKd (HLA-C*04:01) was at most 5.30 and the pKd (HLA-B*15:01 [3]; source organism: Yersinia pestis Nepal516) was at most 4.70.
Sequence HKEGAFFLY has a pIC50 (HLA-A*24:02 [6]) of at most 3.83 and a pIC50 (HLA-A*01:01 [7]) of at most 3.87.
For YLEGHGFRF, the pIC50 (HLA-A*24:02 [6]) was 6.75, the pIC50 (HLA-A*02:01 [8]) was 6.40 and the pIC50 (HLA-A*01:01 [7]) was at most 4.12. For the same sequence, the pIC50 (HLA-B*15:01 [9]) was 4.75.
KQWIVAGAI gave a pKd (HLA-B*39:01; [21]) of at most 4.70, a pKd (HLA-A*26:01 [1]; [21]) of at most 4.70 and a pKd (HLA-A*02:01 [2]; [21]) of 8.77. The pKd (HLA-A*68:02; [21]) was at most 4.70, the pKd (HLA-A*29:02) was at most 4.70 and the pKd (HLA-B*15:17; [21]) was at most 4.70. For the same sequence, the pKd (HLA-A*02:11; [21]) was at least 10.00, the pKd (HLA-B*27:03; [21]) was at most 4.70 and the pKd (HLA-B*57:01; [21]) was at most 4.70. The pKd (HLA-A*02:19; [21]) was at most 4.70, the pKd (HLA-A*03:01 [10]) was at most 4.70 and the pKd (HLA-A*24:03; [21]) was at most 4.70. For the same sequence, the pKd (HLA-B*51:01; [21]) was at most 4.70, the pKd (HLA-B*46:01; [21]) was at most 4.70 and the pKd (HLA-B*18:01; [21]) was at most 4.70. For the same sequence, the pKd (HLA-A*02:03; [21]) was at most 4.70, the pKd (HLA-B*15:01 [3]; [21]) was at most 4.70 and the pKd (HLA-A*69:01 [4]; [21]) was at most 4.70. The pKd (HLA-A*02:12; [21]) was at most 4.70.
Sequence ASRGLWDSF has a pKd (HLA-A*24:02 [11]) of at most 4.70, a pKd (HLA-B*40:01 [12]) of at most 4.70 and a pKd (HLA-A*26:01 [13]) of at most 4.70. It also gave a pKd (HLA-B*08:02; source organism: Influenza A virus (A/Taiwan/2/2006(H1N1))) of at most 4.70, a pKd (HLA-A*02:01 [14]) of at most 4.70 and a pKd (HLA-A*01:01 [15]) of at most 4.70. For the same sequence, the pKd (HLA-A*03:01 [16]) was at most 4.70, the pKd (HLA-B*44:02) was at most 4.70 and the pKd (HLA-A*11:01) was at most 4.70. It also gave a pKd (HLA-B*15:01 [17]) of 6.05, a pKd (HLA-A*69:01 [18]) of at most 4.70 and a pKd (HLA-B*07:02) of at most 4.70. It also gave a pKd (HLA-B*27:05) of at most 4.70, a pKd (HLA-B*08:01; source organism: Influenza A virus (A/Duck/Shantou/2134/00(H9N2))) of at most 4.70 and a pKd (HLA-B*58:01) of at most 5.30.
Work on HFIYHKREK yielded a pKd (HLA-A*31:01; [22]) of 7.73, a pKd (HLA-B*39:01; [22]) of at most 4.70 and a pKd (HLA-A*26:01 [1]; [22]) of at most 4.70. It also gave a pKd (HLA-A*02:01 [2]; [22]) of at most 4.70, a pKd (HLA-A*68:02; [22]) of at most 4.70 and a pKd (HLA-A*02:16; [22]) of at most 4.70. It also gave a pKd (HLA-B*15:17; [22]) of at most 4.70, a pKd (HLA-A*02:11; [22]) of at most 4.70 and a pKd (HLA-B*27:03; [22]) of at most 4.70. The pKd (HLA-B*57:01; [22]) was at most 4.70, the pKd (HLA-A*02:19; [22]) was at most 4.70 and the pKd (HLA-A*24:03; [22]) was at most 4.70. For the same sequence, the pKd (HLA-B*51:01; [22]) was at most 4.70, the pKd (HLA-B*46:01; [22]) was at most 4.70 and the pKd (HLA-B*18:01; [22]) was at most 4.70. The pKd (HLA-A*02:03; [22]) was at most 4.70, the pKd (HLA-B*15:01 [3]; [22]) was at most 4.70 and the pKd (HLA-A*69:01 [4]; [22]) was at most 4.70. For the same sequence, the pKd (HLA-A*02:12; [22]) was at most 4.70.
